Results: paper PMC2697266

Biological target: H3_(1-15)K4me3 peptide with an added C-terminal Tyr (UniProt P68431)
Assay: ITC

A Kd of 750 nM was found for “Recombinant JARID1A_(PHD3) protein used for calorimetry (domain or fragment)” in this work.
